# T1: ɸEL (gp146) (Pseudomonas phage EL, UniProt Q2Z0T5)
# T1 construct: tetradecameric double ring (~863 kDa) or single-ring heptamer (~431 kDa, with ATP and in the crystals)
# T1 sequence (Q2Z0T5 1-558): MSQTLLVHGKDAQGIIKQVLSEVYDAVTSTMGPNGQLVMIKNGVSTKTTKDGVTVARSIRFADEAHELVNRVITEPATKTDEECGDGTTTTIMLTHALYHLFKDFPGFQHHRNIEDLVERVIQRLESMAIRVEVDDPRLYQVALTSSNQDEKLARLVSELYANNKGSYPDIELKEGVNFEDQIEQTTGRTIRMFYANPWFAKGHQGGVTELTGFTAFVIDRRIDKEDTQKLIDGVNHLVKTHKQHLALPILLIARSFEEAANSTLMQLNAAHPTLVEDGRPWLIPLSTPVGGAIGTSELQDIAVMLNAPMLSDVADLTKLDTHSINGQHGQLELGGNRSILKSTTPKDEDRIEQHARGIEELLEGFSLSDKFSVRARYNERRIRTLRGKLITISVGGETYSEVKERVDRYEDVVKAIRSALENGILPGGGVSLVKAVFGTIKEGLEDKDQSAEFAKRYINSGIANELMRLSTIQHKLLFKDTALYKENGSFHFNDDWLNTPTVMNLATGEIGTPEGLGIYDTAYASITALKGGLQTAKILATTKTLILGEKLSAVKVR
# B1: ɸEL (gp146) (Pseudomonas phage EL) (protein)
# chain: T1 sequence (Q2Z0T5 1-558)
# notes: tetradecameric double ring (~863 kDa) or single-ring heptamer (~431 kDa, with ATP and in the crystals)
# B2: E. coli GroES (natural protein)
# chain: MNIRPLHDRVIVKRKEVETKSAGGIVLTGSAAAKSTRGEVLAVGNGRILENGEVKPLDVKVGDIVIFNDGYGVKSEKIDNEEVLIMSESDILAIVEA
# Tests used:
# GroEL from E. coli [1] = target: T2, GroEL from E. coli (E. coli, UniProt P0A6F5 1-548)
# [2] = target: chaperonin gp146 (ɸEL) from the phage EL of Pseudomonas aeruginosa (Pseudomonas bacteriophage EL)
# ɸEL (gp146) [3] = target: T1, ɸEL (gp146); test: cryo-EM structure ([…] Å); format: binding; conditions: double ring, D7, pH 7.5, Mg2+; slowly hydrolysed ATP analogue; pseudo-atomic model
# [4] = target: chaperonin gp146 (ɸEL) from the phage EL of Pseudomonas aeruginosa (Pseudomonas bacteriophage EL); test: cryo-EM structure; ɸEL with ADP, single particle analysis, D7 symmetry, 5.9 Å
# [5] = target: chaperonin gp146 (ɸEL) from the phage EL of Pseudomonas aeruginosa (Pseudomonas bacteriophage EL); test: cryo-EM structure; ɸEL with ATPγS, single particle analysis, D7 symmetry, 5.8 Å
# [6] = target: chaperonin gp146 (ɸEL) from the phage EL of Pseudomonas aeruginosa (Pseudomonas bacteriophage EL); test: cryo-EM structure; apo-ɸEL, no nucleotide, single particle analysis, C2 symmetry, 3.45 Å
# [7] = target: chaperonin gp146 (ɸEL) from the phage EL of Pseudomonas aeruginosa (Pseudomonas bacteriophage EL); test: SEC-MALS; ɸEL at 2 g/L, with 2 mM ATP, 20 mM HEPES-NaOH pH 7.5, 50 mM KCl, 4 mM Mg acetate, 25°C
# [8] = target: chaperonin gp146 (ɸEL) from the phage EL of Pseudomonas aeruginosa (Pseudomonas bacteriophage EL); test: SEC-MALS; ɸEL at 2 g/L, with 2 mM ATP, 20 mM HEPES-NaOH pH 7.5, 100 mM KCl, 2 mM Mg acetate, 25°C
# [9] = target: chaperonin gp146 (ɸEL) from the phage EL of Pseudomonas aeruginosa (Pseudomonas bacteriophage EL); test: crystal structure; ɸEL crystallised with 2 mM ATP, 5 mM BeSO4 and 20 mM NaF; crystal forms I (4.03 Å) and II (3.54 Å)
# [10] = target: chaperonin gp146 (ɸEL) from the phage EL of Pseudomonas aeruginosa (Pseudomonas bacteriophage EL); test: SEC-MALS; ɸEL at 2 g/L, no nucleotide, 20 mM HEPES-NaOH pH 7.5, 100 mM KCl, 2 mM Mg acetate (also run at 50 mM KCl), 25°C
# [11] = target: chaperonin gp146 (ɸEL) from the phage EL of Pseudomonas aeruginosa (Pseudomonas bacteriophage EL); test: SEC-MALS; ɸEL at 2 g/L, with 2 mM ADP, 20 mM HEPES-NaOH pH 7.5, 100 mM KCl, 2 mM Mg acetate (also run at 50 mM KCl), 25°C
# ɸEL (gp146) [12] = target: T1, ɸEL (gp146); test: cryo-EM structure ([…] Å); format: binding; conditions: double ring, D7, pH 7.5, Mg2+; pseudo-atomic model; ADP also modelled in crystal form II (6TMU, chains B, D, F, partial occupancy)
# ɸEL (gp146) [13] = target: T1, ɸEL (gp146); test: X-ray crystal structure ([…] Å, crystal form I); format: binding; conditions: ATP added with BeSO4/NaF; ATP and ADP-BeFx not distinguishable, modelled as ATP with Mg2+; single-ring heptamer, equatorial domain site; also in form II (6TMU, 3.54 Å; chains A, C, E, G)
# GroEL = target: T3, GroEL (Escherichia coli, UniProt P0A6F5); test: NADH-coupled ATPase assay; format: biochemical; conditions: 1 mM ATP, 50 mM Tris-HCl pH 7.5, 10 or 100 mM KCl, 10 mM MgCl2, 25°C; without GroES; rates only in figure
# T3 construct: purified GroEL tetradecamer; source and preparation not described
# [14] = substrate: Nc1ncnc2c1ncn2[C@@H]1O[C@H](COP(=O)(O)OP(=O)(O)OP(=O)(O)O)[C@@H](O)[C@H]1O; test: NADH-coupled ATPase assay (pyruvate kinase/lactate dehydrogenase), Hill fit; format: biochemical, Pseudomonas phage EL; conditions: high salt: 50 mM Tris-HCl pH 7.5, 100 mM KCl, 10 mM MgCl2, 25°C, Hill coefficient fitted
# GroEL from E. coli [15] = target: T2, GroEL from E. coli; test: cell-based or functional assay
# T2 sequence (P0A6F5 whole entry): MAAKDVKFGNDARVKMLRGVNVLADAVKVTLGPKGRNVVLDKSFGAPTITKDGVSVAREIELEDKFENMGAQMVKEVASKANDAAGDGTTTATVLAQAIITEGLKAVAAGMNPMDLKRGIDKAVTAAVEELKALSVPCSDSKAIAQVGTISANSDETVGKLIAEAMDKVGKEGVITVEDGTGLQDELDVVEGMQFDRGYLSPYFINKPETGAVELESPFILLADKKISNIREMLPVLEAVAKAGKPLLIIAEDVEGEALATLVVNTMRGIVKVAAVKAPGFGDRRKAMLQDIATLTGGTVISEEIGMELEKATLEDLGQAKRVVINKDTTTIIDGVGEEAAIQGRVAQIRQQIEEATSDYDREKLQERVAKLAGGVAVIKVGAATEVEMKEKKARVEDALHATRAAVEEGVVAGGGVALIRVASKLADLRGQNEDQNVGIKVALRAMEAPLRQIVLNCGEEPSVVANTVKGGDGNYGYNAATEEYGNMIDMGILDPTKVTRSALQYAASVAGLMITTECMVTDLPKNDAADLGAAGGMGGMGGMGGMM
# T3 sequence (P0A6F5 2-548): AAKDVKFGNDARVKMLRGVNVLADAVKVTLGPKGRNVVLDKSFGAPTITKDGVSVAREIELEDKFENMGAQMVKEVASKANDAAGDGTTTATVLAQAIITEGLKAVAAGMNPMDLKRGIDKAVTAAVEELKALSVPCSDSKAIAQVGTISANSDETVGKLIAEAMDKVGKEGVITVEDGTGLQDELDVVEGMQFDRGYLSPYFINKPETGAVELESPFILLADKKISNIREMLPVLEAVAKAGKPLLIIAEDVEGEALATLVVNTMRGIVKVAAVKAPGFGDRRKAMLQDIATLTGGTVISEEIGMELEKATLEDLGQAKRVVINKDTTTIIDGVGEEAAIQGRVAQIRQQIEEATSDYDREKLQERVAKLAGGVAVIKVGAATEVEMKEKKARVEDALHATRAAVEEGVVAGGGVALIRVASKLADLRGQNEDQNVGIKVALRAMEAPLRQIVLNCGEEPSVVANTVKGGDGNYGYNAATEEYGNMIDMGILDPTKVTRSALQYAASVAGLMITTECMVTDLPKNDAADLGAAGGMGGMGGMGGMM
molecule,measurement,setting,value
"double mutant of maltose binding protein (DM-MBP), denatured (from UniProt P0AEX9 27-396) (natural protein)","GroEL ATPase activity with denatured DM-MBP, at 10 and 100 mM KCl, 1 mM ATP",GroEL from E. coli [1],2 fold
same,"decrease in ɸEL ATPase activity with denatured DM-MBP, at 10 mM KCl, 1 mM ATP",[2],60%
Nc1ncnc2c1ncn2[C@@H]1O[C@H](COP(=O)(O)OP(=O)(O)OP(O)(O)=S)[C@@H](O)[C@H]1O [ATPγS],cryo-EM structure (5.8 Å),ɸEL (gp146) [3],we also determined the cryo-EM structure of ɸEL in the presence of the slowly hydrolyzing
chaperonin gp146 (ɸEL) from the phage EL of Pseudomonas aeruginosa (natural protein),stoichiometry N,[4],14
same,stoichiometry N,[5],14
same,stoichiometry N,[6],14
same,stoichiometry N,[7],14
same,stoichiometry N,[8],7
same,stoichiometry N,[9],7
same,stoichiometry N,[10],14
same,stoichiometry N,[11],14
Nc1ncnc2c1ncn2[C@@H]1O[C@H](COP(=O)(O)OP(=O)(O)O)[C@@H](O)[C@H]1O [ADP],cryo-EM structure (5.9 Å),ɸEL (gp146) [12],we determined the solution structure of ɸEL in the presence of ADP by single-particle cryo-EM
Nc1ncnc2c1ncn2[C@@H]1O[C@H](COP(=O)(O)OP(=O)(O)OP(=O)(O)O)[C@@H](O)[C@H]1O [ATP],"X-ray crystal structure (4.03 Å, crystal form I)",ɸEL (gp146) [13],All subunits as judged from the electron density had either ATP or ADP•BeFX bound
same,NADH-coupled ATPase assay,GroEL,ATPase activity of GroEL and ɸEL in presence and absence of a two-fold excess
B1,Km,[14],72 ± 8 µM
same,kcat,[14],9.6 ± 0.12 s⁻¹ (per tetradecamer)
B2,"decrease in GroEL ATPase activity with a 2-fold molar excess of GroES, at 10 and 100 mM KCl, 1 mM ATP",GroEL from E. coli [15],~50%

# Reference: paper PMC7185714, “Structure and conformational cycle of a bacteriophage-encoded chaperonin” (PLoS ONE, 2020)
